Experimental data as given in paper PMC2726748 (Journal of molecular biology, 2009).

Biological target: the molecule itself
Experiment: crystal structure

B1: recombinant mouse apoptosis inducing factor AIFΔ1–101 (domain or fragment, UniProt Q9Z0X1 102-612, looked up)
chain: GLSPEEKQRRAIASATEGGSVPQIRAPSHVPFLLIGGGTAAFAAARSIRARDPGARVLIVSEDPELPYMRPPLSKELWFSDDPNVTKTLQFRQWNGKERSIYFQPPSFYVSAQDLPNIENGGVAVLTGKKVVHLDVRGNMVKLNDGSQITFEKCLIATGGTPRSLSAIDRAGAEVKSRTTLFRKIGDFRALEKISREVKSITVIGGGFLGSELACALGRKSQASGIEVIQLFPEKGNMGKILPQYLSNWTMEKVKREGVKVMPNAIVQSVGVSGGRLLIKLKDGRKVETDHIVTAVGLEPNVELAKTGGLEIDSDFGGFRVNAELQARSNIWVAGDAACFYDIKLGRRRVEHHDHAVVSGRLAGENMTGAAKPYWHQSMFWSDLGPDVGYEAIGLVDSSLPTVGVFAKATAQDNPKSATEQSGTGIRSESETESEASEITIPPSAPAVPQVPVEGEDYGKGVIFYLRDKVVVGIVLWNVFNRMPIARKIIKDGEQHEDLNEVAKLFNIHED
B1 was tested, and the “stoichiometry N” value was 2.
